The results in this text go back to patent publication US20070092942A1 (published 2007).

The target in test [1] is T1, HA-tagged Ub-vinylmethyl ester (UniProt P0CG47 1-75).
T1 construct: also called HAUbVME; HA-UbVME
In words: 1 uM enzyme with 2 uM HAUbVME, SDS-PAGE silver stain and anti-HA immunoblot. For orientation: In western blotting, separated proteins are transferred to a membrane and probed.

Test [2] deals with T1, HA-tagged Ub-vinylmethyl ester. Briefly: HAUbVME labelling, SDS-PAGE and anti-HA immunoblot.

Substitutions are numbered along the chain they refer to. Numbers in names are those of the source.

B1: EBV205 (enzyme)
chain: MSNGDWGQSQRTRGTGPVRGIRTMDVNAPGGGSGGSALRILGTASCNQAHCKFGRFAGIQCVSNCVLYLVKSFLAGRPLTSRPELDEVLDEGARLDALMRQSGILKGHEMAQLTDVPSSVVLRGGGRVHIYRSAEIFGLVLFPAQIANSAVVQSLAEVLHGSYNGVAQFILYICDIYAGAIIIETDGSFYLFDPHCQKDAAPGTP
notes: range 1-205; not shown: N-terminal His-tag from pET28
Take B1: the binding result in test [1] is recorded as “binds”.

B2: EBV205 C61A (enzyme)
chain: B1 chain with C61A
notes: range 1-205; also called EBV205 active site mutant (C61A); not shown: N-terminal His-tag from pET28
For B2, the binding result in test [2] is on record as “no binding (tested: 2 uM HAUbVME, 1 uM enzyme)”.
